According to the supplement of paper PMC7877785:
± gives the uncertainty stated by the source.

Test: self-splicing fitness, log relative to wild type (ln ratio); higher = more splicing; Tetrahymena group I intron in knt gene, E. coli kanamycin selection, DiMSum; sequences stand for … in CUCUCU…GGAGGGAAAAGUUAUCAGGCAUGCACCUGGUAGCUAGUCUUUAAACCAAUAGAUUGCAUCGGUUUAAAAGGCAAGACCGUCAAAUUGCGGGAAAGGGGUCAACAGCCGUUCAGUACCAAGUCUCAGGGGAAACUUUGAGAUGGCCUUGCAAAGGGUAUGGUAAUAAGCUGACGGACAUGGUCCUAACCACGCAGCCAAGUCCUAAGUCAACAGAUCUUCUGUUGAUAUGGAUGCAGUUCACAGACUAAAUGUCGGUCGGGGAAGAUGUAUUCUUCUCAUAAGAUAUAGUCGGACCUCUCCUUAAUGGGAGCUAGCGGAUGAAGUGAUGCAACACUGGAGCCGCUGGGAACUAAUUUGUAUGCGAAAGUAUAUUGAUUAGUUUUGGAGUACUCGUGGUCG
Procedure, shortened: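 Fitness was computed with DiMSum as the error-weighted combination of replicate fold changes, kanamycin versus none, each normalised to wild type. The library randomised all eight intron nucleotides of the P1ex region, with the intron placed in the knt kanamycin-resistance gene on pET-22b(+) in E. coli BL21(DE3). Six replicate transformations were grown overnight at 37°C or 30°C on LB agar with or without 25 μg/mL kanamycin, plus 100 μg/mL carbenicillin, 50 μM IPTG and 0.2% rhamnose. Pooled colonies were amplicon-sequenced on an Illumina HiSeq 2500.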

Sequence	self-splicing fitness (ln) (30 °C)	self-splicing fitness (ln) (37 °C)
UGGCAGCAAUAUUACGUAUG	-0.256 ± 0.068	-0.15 ± 0.092
GUUUAGCAAUAUUACGGGCA	-1.85 ± 0.17	-0.96 ± 0.15
AGUAAGCAAUAUUACGCAAU	-2.52 ± 0.14	-1.17 ± 0.16
CGGGAGCAAUAUUACGUUCU	-3.58 ± 0.18	-1.49 ± 0.19
GGGGAGCAAUAUUACGCACG	-1.89 ± 0.17	-1.44 ± 0.24
CCGUAGCAAUAUUACGCUGC	-2.07 ± 0.47	-1.49 ± 0.45
GGUAAGCAAUAUUACGUGGG	-4.06 ± 0.3	-2.36 ± 0.25
AGAAAGCAAUAUUACGACGU	0.0909 ± 0.1	0.35 ± 0.1
ACUAAGCAAUAUUACGACGU	-0.322 ± 0.066	0.158 ± 0.082
CUGCAGCAAUAUUACGCUGC	-2.88 ± 0.29	
ACAGAGCAAUAUUACGGCCA	-3.47 ± 0.19	-2.29 ± 0.17
UCGUAGCAAUAUUACGGAGC	-2.59 ± 0.18	-2.35 ± 0.39
GUCGAGCAAUAUUACGCGAC	-2.57 ± 0.2	-2.12 ± 0.29
AAAAAGCAAUAUUACGGAAC	-2.97 ± 0.16	-1.77 ± 0.2
GCUUAGCAAUAUUACGUCAG	-2.36 ± 0.22	
CAACAGCAAUAUUACGUCGU	-3.65 ± 0.12	-2.16 ± 0.11
CGGCAGCAAUAUUACGUUAU	-2.5 ± 0.17	-2.56 ± 0.21
CGUUAGCAAUAUUACGUGAA	-2.48 ± 0.15	-1.45 ± 0.15
UCAGAGCAAUAUUACGCCCA	-2.06 ± 0.44	
AGAGAGCAAUAUUACGCAUG	-3.23 ± 0.22	-1.9 ± 0.35
GCAAAGCAAUAUUACGUUGC	-3.51 ± 0.21	-1.88 ± 0.21
GAAAAGCAAUAUUACGCGUC	-4.29 ± 0.27	-2.78 ± 0.24
GCAAAGCAAUAUUACGUCCG	-1.98 ± 0.25	-1.74 ± 0.31
CACAAGCAAUAUUACGCCCU	-3.12 ± 0.19	-0.633 ± 0.13
AAAGAGCAAUAUUACGAUUU	-0.695 ± 0.14	0.468 ± 0.13
GCUCAGCAAUAUUACGGAUU	-0.53 ± 0.051	0.362 ± 0.075

Sequence	self-splicing fitness (ln) (30 °C)	self-splicing fitness (ln) (37 °C)
CAUGAGCAAUAUUACGUAAG	-0.906 ± 0.096	-0.568 ± 0.11
UUGAAGCAAUAUUACGCGGA	-1.12 ± 0.12	-0.506 ± 0.14
UGUUAGCAAUAUUACGUCUA	-0.124 ± 0.072	-0.175 ± 0.071
CUUUAGCAAUAUUACGUCAU	-4.6 ± 0.39	-2.13 ± 0.23
CAGCAGCAAUAUUACGGUGG	-1.17 ± 0.067	-0.196 ± 0.088
AACCAGCAAUAUUACGAAGU	-2.26 ± 0.066	-0.559 ± 0.069
UUACAGCAAUAUUACGGUGC	-3.23 ± 0.21	-1.92 ± 0.17
GAGGAGCAAUAUUACGUAAA	-3.86 ± 0.17	-1.32 ± 0.13
AAUAAGCAAUAUUACGGAAU	-2.69 ± 0.15	-0.645 ± 0.11
GGACAGCAAUAUUACGCACA	-0.778 ± 0.09	0.0888 ± 0.1
GUUGAGCAAUAUUACGCCAU		-1.09 ± 0.35
AGUCAGCAAUAUUACGGUGU	-1.32 ± 0.075	-0.39 ± 0.1
UCCUAGCAAUAUUACGAGGU	-3.53 ± 0.19	-1.45 ± 0.13
UCUGAGCAAUAUUACGUAUU	-4.55 ± 0.25	-3.08 ± 0.25
GAGUAGCAAUAUUACGCUCG	-1.88 ± 0.28	-0.561 ± 0.29
UCCCAGCAAUAUUACGGCAG	-4.36 ± 0.29	-2.58 ± 0.2
CUACAGCAAUAUUACGUGUC	-3.95 ± 0.14	-2.73 ± 0.15
GCCCAGCAAUAUUACGCUAG	-3.11 ± 0.18	-2.34 ± 0.17
GCACAGCAAUAUUACGCGGG	-2.13 ± 0.069	-1.39 ± 0.081
CAGGAGCAAUAUUACGUCGC	-3.25 ± 0.34	-1.6 ± 0.29
AGAAAGCAAUAUUACGAGCA	-0.695 ± 0.11	-0.262 ± 0.16
GGGUAGCAAUAUUACGAUUU	-0.0881 ± 0.1	-0.476 ± 0.099
UAACAGCAAUAUUACGUGUU	-3.78 ± 0.14	-2.34 ± 0.12
AGCGAGCAAUAUUACGACUG	-1.91 ± 0.15	-0.973 ± 0.17
UCCUAGCAAUAUUACGUAUG	-4.13 ± 0.3	-2.62 ± 0.26
CCGAAGCAAUAUUACGAAUC	-4.12 ± 0.32	-3.04 ± 0.48

Sequence	self-splicing fitness (ln) (30 °C)	self-splicing fitness (ln) (37 °C)
CCUGAGCAAUAUUACGAUUC	-3.56 ± 0.27	
UACAAGCAAUAUUACGGCUA	-0.336 ± 0.06	0.201 ± 0.088
AUUCAGCAAUAUUACGAGGG	-2.42 ± 0.26	-1.42 ± 0.34
GAACAGCAAUAUUACGAUUG	-1.62 ± 0.082	-1.26 ± 0.11
UCUCAGCAAUAUUACGUGCC	-3.38 ± 0.26	-1.71 ± 0.23
CUGCAGCAAUAUUACGAAGA	-1.62 ± 0.23	-2.17 ± 0.27
UCGGAGCAAUAUUACGAGGA	-3.64 ± 0.4	-0.618 ± 0.21
GUCGAGCAAUAUUACGGAUC	-1.36 ± 0.087	-0.586 ± 0.097
CGUAAGCAAUAUUACGAGGA		-1.75 ± 0.33
CCGGAGCAAUAUUACGUACU	-4.13 ± 0.44	-3.36 ± 0.42
UGAAAGCAAUAUUACGGCUG	0.281 ± 0.088	0.316 ± 0.11
AGUGAGCAAUAUUACGCGGA	-2.28 ± 0.3	-1.99 ± 0.23
UCGCAGCAAUAUUACGACUA	0.0221 ± 0.14	-0.0509 ± 0.14
GAAGAGCAAUAUUACGAGGC		-1.8 ± 0.41
CAUUAGCAAUAUUACGCCGC	-1.43 ± 0.29	
UAGAAGCAAUAUUACGCCUC	-2.88 ± 0.5	
CUGCAGCAAUAUUACGGGCU	-4.01 ± 0.17	-1.81 ± 0.17
AUCGAGCAAUAUUACGCUAG	-4.43 ± 0.46	-2.64 ± 0.33
CAUUAGCAAUAUUACGCGCA	-1.39 ± 0.16	-1.52 ± 0.17
ACUAAGCAAUAUUACGAAGU	-3.81 ± 0.38	-2.1 ± 0.35
UCUUAGCAAUAUUACGACGC	-2.07 ± 0.28	-1.02 ± 0.23
AGACAGCAAUAUUACGCUAC	-2.43 ± 0.2	-2.61 ± 0.33
GAGUAGCAAUAUUACGAGCC	-1.67 ± 0.2	-1.26 ± 0.19
AGUGAGCAAUAUUACGGGAC	-4.1 ± 0.47	
UAGUAGCAAUAUUACGGCUG	-0.344 ± 0.061	-0.0985 ± 0.096
CGAAAGCAAUAUUACGCCAU	-3.31 ± 0.45	-2.78 ± 0.43
